Data from article PMC3404891.

Legend:
EGF (Homo sapiens) = EGF (Homo sapiens) (UniProt P01133); test: functional ELISA; conditions: cited from earlier work
[1] = target: T1, recombinant human EGFR/ErbB1 Fc Chimera (human, UniProt P00533 25-645); test: nanogap break-junction I-V measurement
[2] = target: T1, recombinant human EGFR/ErbB1 Fc Chimera; test: surface capture, Sypro Ruby fluorescence

Sequence of EGF (Homo sapiens) (P01133 971-1023): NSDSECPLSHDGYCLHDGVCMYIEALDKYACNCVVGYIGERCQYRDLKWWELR

In the case of “EGFR/ErbB1 Fc chimera (from UniProt P00533)”, the Kd (EGF (Homo sapiens)) is given as less than 8 nM.

B1: extended mutant (scrambled) aptamer hybridized to surface-anchored capture ssDNA (mixed)
RNA: GGCGCUCCGACCUUAGUCUCUGUUCCCACAUCAUGCACAAGGACAAUUCUGUGCAUCCAAGGAGGAGUUCUCGGAACCGUGUAGCACAGCAGAGAAUUAAAUGCCCGCCAUGACCAG
DNA: CTGGTCATGGCGGGCATTTAATTC
modifications: 5'-amine on DNA strand S3
B1: no binding [1].

B2: extended anti-EGFR RNA aptamer hybridized to surface-anchored capture ssDNA (mixed)
RNA: GGCGCUCCGACCUUAGUCUCUGUGCCGCUAUAAUGCACGGAUUUAAUCGCCGUAGAAAAGCAUGUCAAAGCCGGAACCGUGUAGCACAGCAGAGAAUUAAAUGCCCGCCAUGACCAG
DNA: CTGGTCATGGCGGGCATTTAATTC
modifications: 5'-amine on DNA strand S3
B2: binds [2].
